For eight molecules, KM (hOGA) of the glycopeptide substrate (substrate competition assay with 4MU-GlcNAc as reporter substrate), Km and KM of the glycopeptide substrate (substrate competition assay with 4MU-GlcNAc as reporter substrate) results are on record in paper PMC3476531, “Synergy of Peptide and Sugar in O-GlcNAcase Substrate Recognition” (Chemistry & Biology, 2012).

Positions count from the first letter of the chain named. *: point of attachment. βGlcNAc = CC(=O)N[C@@H]1[C@@H](O)[C@H](O)[C@@H](CO)O[C@H]1* Some results are limits rather than exact numbers.

Assay [1] has as its target T1, human O-GlcNAcase (hOGA), wild-type (human) (UniProt O60502).
T1 sequence: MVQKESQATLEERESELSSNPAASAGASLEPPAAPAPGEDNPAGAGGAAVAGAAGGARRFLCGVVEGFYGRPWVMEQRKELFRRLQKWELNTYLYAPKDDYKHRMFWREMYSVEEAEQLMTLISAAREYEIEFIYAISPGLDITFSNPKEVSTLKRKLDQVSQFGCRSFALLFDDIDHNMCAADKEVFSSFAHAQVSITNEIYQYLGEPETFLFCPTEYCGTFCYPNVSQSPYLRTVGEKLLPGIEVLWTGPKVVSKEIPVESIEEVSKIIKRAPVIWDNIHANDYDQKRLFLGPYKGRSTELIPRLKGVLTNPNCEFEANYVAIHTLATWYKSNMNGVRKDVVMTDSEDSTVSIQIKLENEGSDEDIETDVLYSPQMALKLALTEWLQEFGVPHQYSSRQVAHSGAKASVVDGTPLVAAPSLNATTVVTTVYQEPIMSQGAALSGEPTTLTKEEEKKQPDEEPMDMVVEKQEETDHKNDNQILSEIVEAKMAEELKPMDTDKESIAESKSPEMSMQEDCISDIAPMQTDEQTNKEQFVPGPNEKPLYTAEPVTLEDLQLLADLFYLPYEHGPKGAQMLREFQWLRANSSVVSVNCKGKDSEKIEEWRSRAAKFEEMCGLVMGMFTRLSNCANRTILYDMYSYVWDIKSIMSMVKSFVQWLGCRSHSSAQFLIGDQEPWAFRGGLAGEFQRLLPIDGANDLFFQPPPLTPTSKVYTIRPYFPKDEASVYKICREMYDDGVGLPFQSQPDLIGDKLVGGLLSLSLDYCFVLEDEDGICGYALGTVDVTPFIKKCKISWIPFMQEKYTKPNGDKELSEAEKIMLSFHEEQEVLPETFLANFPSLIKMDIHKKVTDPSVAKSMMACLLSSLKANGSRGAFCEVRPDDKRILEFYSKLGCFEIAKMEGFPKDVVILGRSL

Another assay addresses T2, hOGA (Homo sapiens, UniProt O60502).
T2 sequence (O60502 1-916): T1 sequence
Kind of assay: hOGA glycopeptide hydrolysis, substrate competition assay with 4MU-GlcNAc reporter. Format: biochemical. The arrangement: GST (N); made in house; host or cells: transiently transfected HEK293 cells. As to conditions: wild-type full-length hOGA; competition with 4MU-GlcNAc reporter substrate; 37°C, 50 mM citrate-phosphate buffer pH 7.4, 0.1 mg/ml BSA; triplicate; ± error of curve-fit; read-out: Michaelis constant (KM) of glycopeptide substrate for hOGA. As to the method:
Protein was expressed in transiently transfected HEK293 cells and purified via glutathione sepharose affinity chromatography.
hOGA and CpOGA glycopeptide hydrolysis assays were carried out as described previously ([Dorfmueller et al., 2006; Schimpl et al., 2010]) using multisubstrate enzyme kinetics with the fluorigenic pseudosubstrate 4MU-GlcNAc as the reporter substrate. […] Reactions were performed at 37°C in 50 mM citrate-phosphate buffer (pH 7.4) and 0.1 mg/ml BSA. Experiments were performed in triplicate, and data were analyzed and plotted with GraphPad PRISM.

The target in assay [2] is T1, human O-GlcNAcase (hOGA), wild-type (human). This is another data set of the same source.
Assay [3] has as its target T3, human O-GlcNAcase (hOGA) Y69K (human) (UniProt O60502).
T3 sequence: T1 sequence with Y69K

Assay [4] concerns the target T4, human O-GlcNAcase (hOGA) Y69Q (human) (UniProt O60502).
T4 sequence: T1 sequence with Y69Q

Assay [5] has as its target T5, human O-GlcNAcase (hOGA) Y69S (human) (UniProt O60502).
T5 sequence: T1 sequence with Y69S

The target of assay [6] is T6, human O-GlcNAcase (hOGA) Y69F (human) (UniProt O60502).
T6 sequence: T1 sequence with Y69F

“p53 peptide (Ser149) QLVDS(O-GlcNAc)TPPPG, original sequence of Table 2”: the KM (hOGA) of the glycopeptide substrate (substrate competition assay with 4MU-GlcNAc as reporter substrate) in assay [1] turned out to be 21 µM.

Take VPHS(O-GlcNAc)SAQ: the Km at hOGA is 810 ± 140 µM.

Turning to “QLVVS(O-GlcNAc)VPPPG [altered p53 glycopeptide with intramolecular hydrogen bond disrupted]”, the Km on hOGA was 3700 µM.

“QLVVS(O-GlcNAc)TPPPG [altered p53 glycopeptide with intramolecular hydrogen bond disrupted]”: at hOGA, the Km was 1800 µM.

B1: p53 peptide QLWVDS(O-GlcNAc)TPPPG (peptide)
peptide: Ac-QLWVDS(βGlcNAc)TPPPG-NH2
SMILES: CC(=O)N[C@H]1[C@H](OC[C@H](NC(=O)[C@H](CC(=O)O)NC(=O)[C@@H](NC(=O)[C@H](Cc2c[nH]c3ccccc23)NC(=O)[C@H](CC(C)C)NC(=O)[C@H](CCC(N)=O)NC(C)=O)C(C)C)C(=O)N[C@H](C(=O)N2CCC[C@H]2C(=O)N2CCC[C@H]2C(=O)N2CCC[C@H]2C(=O)NCC(N)=O)[C@@H](C)O)O[C@H](CO)[C@@H](O)[C@@H]1O
Take B1: in assay [2], the KM of the glycopeptide substrate (substrate competition assay with 4MU-GlcNAc as reporter substrate) turned out to be 21 µM.

B2: TAB1 peptide (Ser395) VPHS(O-GlcNAc)SAQ, altered sequence (peptide)
peptide: VPHSSAQ
B2: in assay [1], the KM (hOGA) of the glycopeptide substrate (substrate competition assay with 4MU-GlcNAc as reporter substrate) is 810 µM.

B3: TAB1 peptide (Ser395) VPYS(O-GlcNAc)SAQ, original sequence (peptide)
peptide: Ac-VPYS(βGlcNAc)SAQ-NH2
SMILES: CC(=O)N[C@H]1[C@H](OC[C@H](NC(=O)[C@H](Cc2ccc(O)cc2)NC(=O)[C@@H]2CCCN2C(=O)[C@@H](NC(C)=O)C(C)C)C(=O)N[C@@H](CO)C(=O)N[C@@H](C)C(=O)N[C@@H](CCC(N)=O)C(N)=O)O[C@H](CO)[C@@H](O)[C@@H]1O
With B3, in assay [1], the KM (hOGA) of the glycopeptide substrate (substrate competition assay with 4MU-GlcNAc as reporter substrate) came to 4100 µM.

B4: hOGA peptide VAHS(O-GlcNAc)GAK (peptide)
peptide: VAHSGAK
Consider B4, for which the KM of the glycopeptide substrate (substrate competition assay with 4MU-GlcNAc as reporter substrate) in assay [3] was greater than 4000 µM; in assay [4], greater than 4000 µM; in assay [5] it was greater than 4000 µM; in assay [6], 1200 µM.

Usually Km stands for the concentration of substrate that gives half-maximal velocity.
